One data set addresses T1, β-casein (UniProt P02666).
T1 sequence: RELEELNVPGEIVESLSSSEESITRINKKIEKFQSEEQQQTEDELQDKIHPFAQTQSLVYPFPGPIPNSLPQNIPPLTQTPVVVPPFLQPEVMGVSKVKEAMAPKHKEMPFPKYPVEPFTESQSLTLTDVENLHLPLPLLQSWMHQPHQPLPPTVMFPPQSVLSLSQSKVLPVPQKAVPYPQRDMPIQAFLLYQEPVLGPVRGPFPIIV

Data set [1] deals with recombinant serum albumin (UniProt P02768).
The target of another data set is ovalbumin (UniProt P01012).
Data set [2] concerns the target bovine serum albumin (BSA) (UniProt P02769).

The text below walks through data of patent US20030219853.

Sequence of bovine serum albumin (BSA) (P02769 25-607): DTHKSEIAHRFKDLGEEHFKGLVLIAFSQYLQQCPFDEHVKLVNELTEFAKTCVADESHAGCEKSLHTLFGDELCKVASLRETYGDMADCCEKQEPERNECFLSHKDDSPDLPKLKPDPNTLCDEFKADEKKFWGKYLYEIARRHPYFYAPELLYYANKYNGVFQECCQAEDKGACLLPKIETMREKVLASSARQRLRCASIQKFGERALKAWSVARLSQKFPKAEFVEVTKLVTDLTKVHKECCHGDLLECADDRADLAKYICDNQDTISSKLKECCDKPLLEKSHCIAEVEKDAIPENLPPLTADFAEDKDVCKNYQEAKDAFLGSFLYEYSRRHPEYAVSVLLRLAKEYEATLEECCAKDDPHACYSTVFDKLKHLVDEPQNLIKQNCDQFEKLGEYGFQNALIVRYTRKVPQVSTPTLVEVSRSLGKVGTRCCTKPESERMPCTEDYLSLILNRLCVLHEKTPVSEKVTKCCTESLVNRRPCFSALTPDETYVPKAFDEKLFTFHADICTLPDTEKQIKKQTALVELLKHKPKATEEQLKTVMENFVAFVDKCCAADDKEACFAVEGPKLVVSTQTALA
Sequence of ovalbumin (P01012 2-386): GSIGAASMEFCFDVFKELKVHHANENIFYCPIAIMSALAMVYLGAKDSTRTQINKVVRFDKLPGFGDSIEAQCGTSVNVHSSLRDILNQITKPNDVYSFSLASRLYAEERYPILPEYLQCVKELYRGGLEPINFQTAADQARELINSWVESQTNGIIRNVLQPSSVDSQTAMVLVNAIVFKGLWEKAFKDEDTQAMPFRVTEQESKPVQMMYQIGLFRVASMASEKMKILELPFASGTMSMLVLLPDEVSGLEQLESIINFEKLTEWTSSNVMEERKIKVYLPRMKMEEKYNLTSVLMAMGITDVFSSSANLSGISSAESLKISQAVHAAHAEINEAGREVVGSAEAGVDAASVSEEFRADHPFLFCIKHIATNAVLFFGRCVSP

B1: recombinant 6x-His-TGase fusion protein of Streptomyces mobaraensis ATCC 29032 (enzyme, UniProt P81453 77-407, looked up)
Protein-glutamine gamma-glutamyltransferase: DSDDRVTPPAEPLDRMPDPYRPSYGRAETVVNNYIRKWQQVYSHRDGRKQQMTEEQREWLSYGCVGVTWVNSGQYPTNRLAFASFDEDRFKNELKNGRPRSGETRAEFEGRVAKESFDEEKGFQRAREVASVMNRALENAHDESAYLDNLKKELANGNDALRNEDARSPFYSALRNTPSFKERNGGNHDPSRMKAVIYSKHFWSGQDRSSSADKRKYGDPDAFRPAPGTGLVDMSRDRNIPRSPTSPGEGFVNFDYGWFGAQTEADADKTVWTHGNHYHAPNGSLGAMHVYESKFRNWSEGYSDFDRGAYVITFIPKSWNTAPDKVKQGWP
modifications: N-terminal 6xHis tag
B1: the “cross-linking of BSA5 peptide on SDS-PAGE” value in the data set on BSA5 peptide was “increased amount of recombinant SM TGase corresponding to an increase in cross-linked (CL) BSA5 peptide, which run as a large molecular weight polymer on the top of the separating gel”. In the data set with β-casein, the “cross-linking of a mixture of β-casein and glucose oxidase on SDS-PAGE” value is listed as “both protein species can be cross-linked by the purified recombinant SM TGase, as indicated by the disappearance of the two monomer bands”; the “cross-linking of β-casein on SDS-PAGE” value was “the cross-linked (CL) β-casein migrated as a smear on the SDS-PAGE gel indicating a mixture of high molecular weight polymers of different length”; the “cross-linking of β-casein on SDS-PAGE, 0 mM DTT” value was “in the absence of DTT (lane 1 and 2), the recombinant SM TGase had no cross-linking activity on β-casein and β-casein runs as a monomer”; the “cross-linking of β-casein on SDS-PAGE, about 2 mM DTT” value was “the recombinant SM TGase was activated and β-casein run as a mixture of cross-linked polymer and monomer”. Also, the “cross-linking of β-casein on SDS-PAGE, about 10 mM DTT” value with β-casein is on record as “the catalytic cross-linking activity of SM TGase resulted in cross-linking of all detectable β-casein substrates in the reaction”. The “cross-linking on SDS-PAGE, native and modified (denatured, dialyzed) protein” value (shortened to “cross-linking on SDS-PAGE”) with histone H3 protein is “only the reactions containing the modified protein species of BSA, histine H3 protein, glucose oxidase, and ovalbumin were cross-linked by the purified recombinant SM TGase; complete and partial cross-linking was both observed for native histine H3 protein”. In data set [1], the “cross-linking of recombinant serum albumin on SDS-PAGE” value was “the cross-linking reaction containing recombinant serum albumin revealed a mixture of very high molecular weight polymers of different length”. Further, in the data set with ovalbumin, the “cross-linking on SDS-PAGE” value was “only the reactions containing the modified protein species of BSA, histine H3 protein, glucose oxidase, and ovalbumin were cross-linked by the purified recombinant SM TGase”. In addition, in data set [2], the “cross-linking on SDS-PAGE” value was “only the reactions containing the modified protein species of BSA, histine H3 protein, glucose oxidase, and ovalbumin were cross-linked by the purified recombinant SM TGase”.
